# Test results: patent US20220298223A1 (KING S COLLEGE LONDON, published 2022)
# T1: human CD19 expressed on LO68 tumor cells (human, UniProt P15391 20-556)
# T1 construct: whole, on cells; also called CD19+ LO68 tumor cells; CD19-engineered LO68 tumor cells
# T1 sequence (looked up): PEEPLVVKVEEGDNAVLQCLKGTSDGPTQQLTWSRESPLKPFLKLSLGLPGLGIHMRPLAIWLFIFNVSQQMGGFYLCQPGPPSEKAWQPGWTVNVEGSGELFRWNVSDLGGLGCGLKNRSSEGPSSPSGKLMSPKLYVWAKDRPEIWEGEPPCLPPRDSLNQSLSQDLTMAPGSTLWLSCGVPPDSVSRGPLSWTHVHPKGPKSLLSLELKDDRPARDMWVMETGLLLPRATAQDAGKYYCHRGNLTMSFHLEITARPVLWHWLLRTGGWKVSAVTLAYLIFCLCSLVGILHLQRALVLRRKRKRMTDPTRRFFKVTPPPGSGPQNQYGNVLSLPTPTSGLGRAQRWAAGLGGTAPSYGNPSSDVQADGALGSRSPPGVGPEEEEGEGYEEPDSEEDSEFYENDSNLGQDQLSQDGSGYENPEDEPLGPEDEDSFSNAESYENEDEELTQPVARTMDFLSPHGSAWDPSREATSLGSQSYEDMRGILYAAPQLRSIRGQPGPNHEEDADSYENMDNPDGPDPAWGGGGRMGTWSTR
# Target: T1, human CD19 expressed on LO68 tumor cells
# Experiment: z-Movi microfluidic chip, CAR T cells on a monolayer of CD19+ LO68 tumor cells, force ramp, percent bound T cells
# Experimental: CD19-engineered LO68 tumor cells were seeded in a z-Movi microfluidic chip and cultured for 16 hours. The next day, flow sorted CAR-T cells were serially flowed in the chips and incubated with the target cells for 5 minutes prior to initializing a 3-minute linear force ramp. Cell detachment was determined using post-experiment using image analysis techniques.
# Increasing fluidic force was applied and the percentage of bound T-cells was determined (median, n=3). […] Data are presented as median rForce which is the relative force required to elicit cell detachment, calibrated to […] polystyrene beads. Since data were not normally distributed, they are presented as median rForce which is the relative force required to elicit cell detachment and calibrated to […] polystyrene beads. […] Data shown are mean±standard error (n=11 runs, 3 independent donors). […] For clarity, a single representative run for one healthy donor is plotted in which each dot represents a single cell.
row,binding result,Binder
1,binds,"G02 second generation CAR (F-2 with the second glycine of FMC63 VH CDR3 substituted by alanine), expressed on human T cells (other, CAR on transduced human T cells; also called FMC63(G02)) DIQMTQTTSSLSASLGDRVTISCRASQDISKYLNWYQQKPDGTVKLLIYHTSRLHSGVPSRFSGSGSGTDYSLTISNLEQEDIATYFCQQGNTLPYTFGGGTKLEITGGGGSGGGGSGGGGSEVKLQESGPGLVAPSQSLSVTCTVSGVSLPDYGVSWIRQPPRKGLEWLGVIWGSETTYYNSALKSRLTIIKDNSKSQVFLKMNSLQTDDTAIYYCAKHYYYGASYAMDYWGQGTSVTVSSAAAIEVEQKLISEEDLLDNEKSNGTIIHVKGKHLCPSPLFPGPSKPFWVLVVVGGVLACYSLLVTVAFIIFWVRSKRSRLLHSDYMNMTPRRPGPTRKHYQPYAPPRDFAAYRSRVKFSRSADAPAYQQGQNQLYNELNLGRREEYDVLDKRRGRDPEMGGKPRRKNPQEGLYNELQKDKMAEAYSEIGMKGERRRGKGHDGLYQGLSTATKDTYDALHMQALPPR"
2,binds,"Y01 second generation CAR (F-2 with the first tyrosine of FMC63 VH CDR3 substituted by alanine), expressed on human T cells (other, CAR on transduced human T cells; also called FMC63(Y01)) DIQMTQTTSSLSASLGDRVTISCRASQDISKYLNWYQQKPDGTVKLLIYHTSRLHSGVPSRFSGSGSGTDYSLTISNLEQEDIATYFCQQGNTLPYTFGGGTKLEITGGGGSGGGGSGGGGSEVKLQESGPGLVAPSQSLSVTCTVSGVSLPDYGVSWIRQPPRKGLEWLGVIWGSETTYYNSALKSRLTIIKDNSKSQVFLKMNSLQTDDTAIYYCAKHAYYGGSYAMDYWGQGTSVTVSSAAAIEVEQKLISEEDLLDNEKSNGTIIHVKGKHLCPSPLFPGPSKPFWVLVVVGGVLACYSLLVTVAFIIFWVRSKRSRLLHSDYMNMTPRRPGPTRKHYQPYAPPRDFAAYRSRVKFSRSADAPAYQQGQNQLYNELNLGRREEYDVLDKRRGRDPEMGGKPRRKNPQEGLYNELQKDKMAEAYSEIGMKGERRRGKGHDGLYQGLSTATKDTYDALHMQALPPR"
3,binds,"Y04 second generation CAR (F-2 with the fourth tyrosine of FMC63 VH CDR3 substituted by alanine), expressed on human T cells (other, CAR on transduced human T cells; also called FMC63(Y04)) DIQMTQTTSSLSASLGDRVTISCRASQDISKYLNWYQQKPDGTVKLLIYHTSRLHSGVPSRFSGSGSGTDYSLTISNLEQEDIATYFCQQGNTLPYTFGGGTKLEITGGGGSGGGGSGGGGSEVKLQESGPGLVAPSQSLSVTCTVSGVSLPDYGVSWIRQPPRKGLEWLGVIWGSETTYYNSALKSRLTIIKDNSKSQVFLKMNSLQTDDTAIYYCAKHYYYGGSAAMDYWGQGTSVTVSSAAAIEVEQKLISEEDLLDNEKSNGTIIHVKGKHLCPSPLFPGPSKPFWVLVVVGGVLACYSLLVTVAFIIFWVRSKRSRLLHSDYMNMTPRRPGPTRKHYQPYAPPRDFAAYRSRVKFSRSADAPAYQQGQNQLYNELNLGRREEYDVLDKRRGRDPEMGGKPRRKNPQEGLYNELQKDKMAEAYSEIGMKGERRRGKGHDGLYQGLSTATKDTYDALHMQALPPR"
4,binds,"Y03 second generation CAR (F-2 with the third tyrosine of FMC63 VH CDR3 substituted by alanine), expressed on human T cells (other, CAR on transduced human T cells; also called FMC63(Y03)) DIQMTQTTSSLSASLGDRVTISCRASQDISKYLNWYQQKPDGTVKLLIYHTSRLHSGVPSRFSGSGSGTDYSLTISNLEQEDIATYFCQQGNTLPYTFGGGTKLEITGGGGSGGGGSGGGGSEVKLQESGPGLVAPSQSLSVTCTVSGVSLPDYGVSWIRQPPRKGLEWLGVIWGSETTYYNSALKSRLTIIKDNSKSQVFLKMNSLQTDDTAIYYCAKHYYAGGSYAMDYWGQGTSVTVSSAAAIEVEQKLISEEDLLDNEKSNGTIIHVKGKHLCPSPLFPGPSKPFWVLVVVGGVLACYSLLVTVAFIIFWVRSKRSRLLHSDYMNMTPRRPGPTRKHYQPYAPPRDFAAYRSRVKFSRSADAPAYQQGQNQLYNELNLGRREEYDVLDKRRGRDPEMGGKPRRKNPQEGLYNELQKDKMAEAYSEIGMKGERRRGKGHDGLYQGLSTATKDTYDALHMQALPPR"
